Laboratory results published in publication PMC6051998, “Steric interference from intrinsically disordered regions controls dynamin-related protein 1 self-assembly during mitochondrial fission” (Scientific Reports, 2018).
Residue numbers refer to the chain shown, from its start. Names may count otherwise. “And” between values parts separate entries of the source, which are not always exact repeats. Equal entries are not always repeated.

Experiments:
[1] = target: the molecule itself; test: SEC-MALS; included (soluble) fraction of Drp1ΔVD loaded at 6 μM onto Superose 6 10/300 GL
[2] = target: the molecule itself; test: SEC-MALS; full-length Drp1 WT and mutants, nucleotide-free, each loaded at 10 μM in 500 μl onto Superose 6 10/300 GL in Buffer A (20 mM HEPES pH 7.5, 150 mM KCl) with 1 mM DTT
[3] = target: full-length Mff (mitochondrial fission factor), reconstituted in CL-free nanotubes or liposomes; test: cell-based or functional assay

B1: Drp1ΔVD (Δ514–602) (natural protein, human, UniProt O00429-4 1-699, looked up)
chain: MEALIPVINKLQDVFNTVGADIIQLPQIVVVGTQSSGKSSVLESLVGRDLLPRGTGIVTRRPLILQLVHVSQEDKRKTTGEENGVEAEEWGKFLHTKNKLYTDFDEIRQEIENETERISGNNKGVSPEPIHLKIFSPNVVNLTLVDLPGMTKVPVGDQPKDIELQIRELILRFISNPNSIILAVTAANTDMATSEALKISREVDPDGRRTLAVITKLDLMDAGTDAMDVLMGRVIPVKLGIIGVVNRSQLDINNKKSVTDSIRDEYAFLQKKYPSLANRNGTKYLARTLNRLLMHHIRDCLPELKTRINVLAAQYQSLLNSYGEPVDDKSATLLQLITKFATEYCNTIEGTAKYIETSELCGGARICYIFHETFGRTLESVDPLGGLNTIDILTAIRNATGPRPALFVPEVSFELLVKRQIKRLEEPSLRCVELVHEEMQRIIQHCSNYSTQELLRFPKLHDAIVEVVTCLLRKRLPVTNEMVHNLVAIELAYINTKHPDFADACGLMNNNIEEQRDCEVIERLIKSYFLIVRKNIQDSVPKAVMHFLVNHVKDTLQSELVGQLYKSSLLDDLLTESEDMAQRRKEAADMLKALQGASQIIAEIRETHLW
notes: dynamin-related protein 1 (Drp1), human, with the variable domain deleted (Δ514–602); ~70 kDa monomer; source: E. coli BL21 Star (DE3), purified
stoichiometry N [1]: 4

B2: Drp1 R247A (full-length) (natural protein, human, UniProt O00429-4 1-699, looked up)
chain: MEALIPVINKLQDVFNTVGADIIQLPQIVVVGTQSSGKSSVLESLVGRDLLPRGTGIVTRRPLILQLVHVSQEDKRKTTGEENGVEAEEWGKFLHTKNKLYTDFDEIRQEIENETERISGNNKGVSPEPIHLKIFSPNVVNLTLVDLPGMTKVPVGDQPKDIELQIRELILRFISNPNSIILAVTAANTDMATSEALKISREVDPDGRRTLAVITKLDLMDAGTDAMDVLMGRVIPVKLGIIGVVNASQLDINNKKSVTDSIRDEYAFLQKKYPSLANRNGTKYLARTLNRLLMHHIRDCLPELKTRINVLAAQYQSLLNSYGEPVDDKSATLLQLITKFATEYCNTIEGTAKYIETSELCGGARICYIFHETFGRTLESVDPLGGLNTIDILTAIRNATGPRPALFVPEVSFELLVKRQIKRLEEPSLRCVELVHEEMQRIIQHCSNYSTQELLRFPKLHDAIVEVVTCLLRKRLPVTNEMVHNLVAIELAYINTKHPDFADACGLMNNNIEEQRRNRLARELPSAVSRDKVASGGGGVGDGVQEPTTGNWRGMLKTSKAEELLAEEKSKPIPIMPASPQKGHAVNLLDVPVPVARKLSAREQRDCEVIERLIKSYFLIVRKNIQDSVPKAVMHFLVNHVKDTLQSELVGQLYKSSLLDDLLTESEDMAQRRKEAADMLKALQGASQIIAEIRETHLW
notes: dynamin-related protein 1 (Drp1), human, full length, with R247A in the GTPase domain; source: E. coli BL21 Star (DE3), purified
stoichiometry N [2]: 2 and 4
Mff-stimulated GTPase activity on NT compared to Drp1 WT [3]: 3 fold

B3: full-length Drp1 WT (Drp1 short; human isoform 3; 699 a.a.) (natural protein, UniProt O00429-4 1-699, looked up)
chain: B2 chain with A247R
notes: dynamin-related protein 1 (Drp1), human, short isoform; human isoform 3; 699 a.a; also called Drp1-short-80-loop; dynamin-related protein 1; source: E. coli BL21 Star (DE3), purified
stoichiometry N [2]: 4 and 2

B4: Drp1 G350D (full-length stalk L1N mutant) (natural protein, human, UniProt O00429-4 1-699, looked up)
chain: B2 chain with A247R, G350D
notes: dynamin-related protein 1 (Drp1), human, short isoform (isoform 3, 699 a.a.) with G350D; source: E. coli BL21 Star (DE3), purified
stoichiometry N [2]: 2
